Reference: publication PMC5976439

Columns and labels:
[1] = biological target: wild type mononucleosome (recombinant Xenopus laevis histone octamer on 601 DNA) (Xenopus laevis)
[2] = biological target: APM (acidic patch mutant) mononucleosome, H2A E61A, E64A, D90A, D92A (Xenopus laevis)
[3] = biological target: wild type mononucleosome (recombinant Xenopus laevis histone octamer on 601 DNA) (Xenopus laevis); remark: listed apart in the source

Substance	reduction of the rate constant of remodeling of WT nucleosomes by sub-saturating SNF2h, dose-dependent, up to 50 µM LANA peptide; the pair that is blocked: SNF2h and the nucleosome [1] [fold]	apparent Km (KM^app) of the gel remodeling rate against SNF2h concentration, 0/60 APM nucleosomes, cooperative binding model [2] [nM]	apparent Km (KM^app) of the gel remodeling rate against SNF2h concentration, 0/60 WT nucleosomes, cooperative binding model [3] [nM]
LANA peptide (from the latency associated nuclear antigen of Kaposi's sarcoma-associated herpesvirus)	200		
SNF2h (human ISWI ATPase), purified from E. coli (from UniProt O60264 1-1052) (enzyme)		280	61
